Where “and” joins values, the source holds several entries; their conditions need not be identical. Equal entries are not always repeated. Where two headings read alike, the source gives them in different places.
Legend:
[1] = target: T1, S. aureus LukF (Staphylococcus aureus); test: method not stated at Table 8; BLI (Octet) is described in Example 4
[2] = target: T1, S. aureus LukF
[3] = target: T2, S. aureus LukD (Staphylococcus aureus, UniProt Q2FXB1 27-327)
T2 sequence: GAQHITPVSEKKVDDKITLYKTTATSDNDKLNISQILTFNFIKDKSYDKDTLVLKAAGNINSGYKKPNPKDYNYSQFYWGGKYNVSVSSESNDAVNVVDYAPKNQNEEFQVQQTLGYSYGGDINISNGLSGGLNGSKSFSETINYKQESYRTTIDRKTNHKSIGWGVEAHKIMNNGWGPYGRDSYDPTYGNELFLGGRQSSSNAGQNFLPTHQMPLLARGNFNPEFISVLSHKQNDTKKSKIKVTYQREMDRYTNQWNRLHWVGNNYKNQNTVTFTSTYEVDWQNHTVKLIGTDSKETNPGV

[4] = target: T3, S. aureus HlgB (Staphylococcus aureus, UniProt P0A075 27-325)
T3 sequence: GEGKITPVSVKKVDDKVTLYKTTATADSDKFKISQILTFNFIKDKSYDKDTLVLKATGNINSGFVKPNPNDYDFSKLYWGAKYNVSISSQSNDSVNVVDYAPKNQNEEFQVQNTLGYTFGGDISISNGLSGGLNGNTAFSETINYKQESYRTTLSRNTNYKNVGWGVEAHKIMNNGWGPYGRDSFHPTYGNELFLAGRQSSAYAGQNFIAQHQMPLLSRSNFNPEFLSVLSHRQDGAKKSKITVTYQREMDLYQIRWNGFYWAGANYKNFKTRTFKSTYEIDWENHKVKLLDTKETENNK

[5] = target: T4, LukSF (Staphylococcus aureus); test: cell-based or functional assay
[6] = target: T5, HlgAB (Staphylococcus aureus, UniProt P0A074 30-309); test: cell-based or functional assay
T5 sequence 1: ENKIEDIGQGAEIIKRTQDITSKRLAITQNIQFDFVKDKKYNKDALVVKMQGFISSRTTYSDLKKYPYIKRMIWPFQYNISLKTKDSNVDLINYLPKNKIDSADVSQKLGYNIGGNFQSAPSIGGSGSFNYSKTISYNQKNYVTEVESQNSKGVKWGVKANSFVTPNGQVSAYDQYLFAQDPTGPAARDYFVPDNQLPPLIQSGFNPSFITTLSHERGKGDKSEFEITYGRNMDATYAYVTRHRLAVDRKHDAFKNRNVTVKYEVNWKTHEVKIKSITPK
T5 sequence 2: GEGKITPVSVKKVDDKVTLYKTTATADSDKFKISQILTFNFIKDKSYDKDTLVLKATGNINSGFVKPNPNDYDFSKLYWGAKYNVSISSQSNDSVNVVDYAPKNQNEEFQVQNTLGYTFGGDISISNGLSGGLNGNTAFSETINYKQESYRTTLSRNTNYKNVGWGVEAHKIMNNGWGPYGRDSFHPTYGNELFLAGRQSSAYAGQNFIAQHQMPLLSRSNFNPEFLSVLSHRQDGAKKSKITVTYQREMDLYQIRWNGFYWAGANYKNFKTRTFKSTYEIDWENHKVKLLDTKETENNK

[7] = target: T4, LukSF; test: cell-based or functional assay; remark: listed apart in the source
[8] = target: T5, HlgAB; test: cell-based or functional assay; remark: listed apart in the source
[9] = target: T4, LukSF; test: cell-based or functional assay; remark: listed apart in the source
[10] = target: T5, HlgAB; test: cell-based or functional assay; remark: listed apart in the source

Binder	Kd [1]	Kd [2]	koff [2]	kon [2]	Kd [3]	koff [3]	kon [3]	Kd [4]	koff [4]	kon [4]	IC50 (LukSF) HL-60 [5]	IC50 (HIgAB) HL-60 [6]	IC50 (LukSF) HL-60; Dark sample [7]	IC50 (LukSF) HL-60; Light sample [7]	IC50 (HIgAB) HL-60; Dark sample [8]	IC50 (HIgAB) HL-60; Light sample [8]	IC50 Fold loss vs. WT (LukSF) [9]	IC50 for LukSF [9]	IC50 Fold loss vs. WT (HIgAB) [10]	IC50 for HIgAB [10]
SAN481-YTE (antibody, also called QD1) heavy: QLQLVESGGGAVQPGRSLKLSCAASGFNFSTYAMHWVRQAPGRGLEWVAVTSFDGSNEYYIDSVKGRFTISRDNTKNTLYLQMTGLRVEDTALYFCARDEYTGGWYSVGYWGQGTLVTVSSASTKGPSVFPLAPSSKSTSGGTAALGCLVKDYFPEPVTVSWNSGALTSGVHTFPAVLQSSGLYSLSSVVTVPSSSLGTQTYICNVNHKPSNTKVDKRVEPKSCDKTHTCPPCPAPELLGGPSVFLFPPKPKDTLYITREPEVTCVVVDVSHEDPEVKFNWYVDGVEVHNAKTKPREEQYNSTYRVVSVLTVLHQDWLNGKEYKCKVSNKALPAPIEKTISKAKGQPREPQVYTLPPSREEMTKNQVSLTCLVKGFYPSDIAVEWESNGQPENNYKTTPPVLDSDGSFFLYSKLTVDKSRWQQGNVFSCSVMHEALHNHYTQKSLSLSPGK light: not shown	0.0148 nM	0.232 nM and 0.226 nM	6.55e-05 s⁻¹ and 6.47e-05 s⁻¹	283000 M⁻¹ s⁻¹ and 287000 M⁻¹ s⁻¹	< 0.001 nM	< 1e-07 s⁻¹	277000 M⁻¹ s⁻¹ and 294000 M⁻¹ s⁻¹	< 0.001 nM	< 1e-07 s⁻¹	240000 M⁻¹ s⁻¹ and 265000 M⁻¹ s⁻¹	0.15 µg/mL	0.54 µg/mL	0.209 µg/mL	0.233 µg/mL	0.704 µg/mL	0.821 µg/mL	0.938 fold	0.15 µg/mL	0.95 fold	0.54 µg/mL
SAN481-TF-YTE (antibody, V domains shown, also called QD4; SAN481-VH28T100E-YTE) VH: QLQLVESGGGAVQPGRSLKLSCAASGFTFSTYAMHWVRQAPGRGLEWVAVTSFDGSNEYYIDSVKGRFTISRDNTKNTLYLQMTGLRVEDTALYFCARDEYTGGFYSVGYWGQGTLVTVSS VL: QSVLTQPPSASGTPGQRVTISCSGNSYNIGSNSVYWYQQFPGTAPKLLISRSIQRPSGVPDRFSGSKSVTSASLAISGLRSEDEADYYCAAWDDSLRAWVFGGGTKLTVLG	1.21 nM										0.81 µg/mL	0.44 µg/mL					5.07 fold	0.811 µg/mL	0.775 fold	0.441 µg/mL
